Patent US6958236B2, “Control of gene expression in plants” (priority 2000, dated 2005)

B1: G(M)BV: EcR chimera: GAL4 DBD, Manduca sexta D domain, black cutworm E domain, VP16; SEQ ID NO:118-119 (protein)
chain: MQQLYVDFFSPAFIRYLFAWYCFFCRCSPCCLVLLLQGSATMKLLSSIEQACDICRLKKLKCSKEKPKCAKCLKNNWECRYSPKTKRSPLTRAHLTEVESRLERLEQLFLLIFPREDLDMILKMDSLQDIKALLTGLFVQDNVNKDAVTDRLASVETDMPLTLRQHRISATSSSEESSNKGQRQLTVSTRMRPECVVPESTCKNKRREKEAQREKDKLPVSTTTVDDHMPAIMQCDPPPPEAARIHEVVPRFLTEKLMEQNRLKNVTPLSANQKSLIARLVWYQEGYEQPSEEDLKRVTQTWQSDEDEEESDMPFRQITEMTILTVQLIVEFAKGLPGFAKISQSDQITLLKACSSEVMMLRVARRYDAATDSVLFANNQAYSRDNYRKAGMSYVIEDLLHFCRCMYSMMMDNVHYALLTAIVIFSDRPGLEQPLLVEEIQRYYLNTLRVYILNQNSASPRCPVVFAKILGILTELRTLGMQNSNMCISLKLKNRKLPPFLEEIWDVESRGKLAPPTDVSLGDELHLDGEDVAMAHADALDDFDLDMLGDGDSPGPGFTPHDSAPYGALDMADFEFEQMFTDALGIDEYGG
B2: G(E)MV: EcR chimera: GAL4 DBD, European corn borer D domain, Manduca sexta E domain, VP16; SEQ ID NO:126-127 (protein)
chain: MQQLYVDFFSPAFIRYLFAWYCFFCRCSPCCLVLLLQGSATMKLLSSIEQACDICRLKKLKCSKEKPKCAKCLKNNWECRYSPKTKRSPLTRAHLTEVESRLERLEQLFLLIFPREDLDMILKMDSLQDIKALLTGLFVQDNVNKDAVTDRLASVETDMPLTLRQHRISATSSSEESSNKGQRQLTVSTRMRPECVVPETQCAQKRKEKKAQREKDKLPVSTTTVDDHMPPIMQCDPPPPEAARILECLQHEVVPRFLSEKLMEQNRLKNIPPLTANQQFLIARLVWYQEGYEQPSEEDLKRVTQTWQLEEEEEEETDMPFRQITEMTILTVQLIVEFAKGLPGFSKISQSDQITLLKASSSEVMMLRVARRYDAATDSVLFANNQAYTRDNYRKAGMSYVIEDLLHFCRCMYSMSMDNVHYALLTAIVIFSDRPGLEQPLLVEEIQRYYLKTLRVYILNQHSASPRCAVLFGKILGVLTELRTLGTQNSNMCISLKLKNRKLPPFLEEIWDVAEVSTTKLAPPTDVSLGDELHLDGEDVAMAHADALDDFDLDMLGDGDSPGPGFTPHDSAPYGALDMADFEFEQMFTDALGIDEYGG
B3: G(E)EV: EcR chimera: GAL4 DBD, European corn borer D and E domains, VP16; SEQ ID NO:124-125 (protein)
chain: MQQLYVDFFSPAFIRYLFAWYCFFCRCSPCCLVLLLQGSATMKLLSSIEQACDICRLKKLKCSKEKPKCAKCLKNNWECRYSPKTKRSPLTRAHLTEVESRLERLEQLFLLIFPREDLDMILKMDSLQDIKALLTGLFVQDNVNKDAVTDRLASVETDMPLTLRQHRISATSSSEESSNKGQRQLTVSTRMRPECVVPETQCAQKRKEKKAQREKDKLPVSTTTVDDHMPPIMQCDPPPPEAARILECLQHEVVPRFLSEKLMEQNRLKNIPPLTANQQFLIARLVWYQDGYEQPSEEDLKRVTQTWQSADEEDEDSDMPFRQITEMTILTVQLIVEFAKGLPGFSKISQPDQITLLKACSSEVMMLRVARRYDAVSDSVLFANNQAYTRDNYRKAGMAYVIEDLLHFCRCMYSMSMDNVHYALLTAIVIFSDRPGLEQPQLVEEIQRYYLNTLRVYIMNQHSASPRCAVIYAKILSVLTELRTLGMQNSNMCISLKLKNRKLPPFLEEIWDVKLAPPTDVSLGDELHLDGEDVAMAHADALDDFDLDMLGDGDSPGPGFTPHDSAPYGALDMADFEFEQMFTDALGIDEYGG
B4: G(M)FV: EcR chimera: GAL4 DBD, Manduca sexta D domain, fall armyworm E domain, VP16; SEQ ID NO:122-123 (protein)
chain: MQQLYVDFFSPAFIRYLFAWYCFFCRCSPCCLVLLLQGSATMKLLSSIEQACDICRLKKLKCSKEKPKCAKCLKNNWECRYSPKTKRSPLTRAHLTEVESRLERLEQLFLLIFPREDLDMILKMDSLQDIKALLTGLFVQDNVNKDAVTDRLASVETDMPLTLRQHRISATSSSEESSNKGQRQLTVSTRMRPECVVPESTCKNKRREKEAQREKDKLPVSTTTVDDHMPAIMQCDPPPPEAARIHEVVPRFLTEKLMEQNRLKNVTPLSANQKSLIARLVWYQEGYEQPSEEDLKRVTQTWQLEEEEEEETDMPFRQITEMTILTVQLIVEFAKGLPGFSKISQSDQITLLKASSSEVMMLRVARRYDAATDSVLFANNQAYTRDNYRKAGMSYVIGDLLHFCRCMYSMSMDNVHYALLTAIVIFSDRPGLEQPLLVEEIQRYYLKTLRVYILNQYSASPRCAVLFGKILGVLTELRTLGTQNSNMCISLKLKNRKLPPFLEEIWDVKLAPPTDVSLGDELHLDGEDVAMAHADALDDFDLDMLGDGDSPGPGFTPHDSAPYGALDMADFEFEQMFTDALGIDEYGG
B5: G(M)MC: EcR chimera: GAL4 DBD, Manduca sexta D and E domains, maize C1 activation domain; SEQ ID NO:134-135 (protein)
chain: MQQLYVDFFSPAFIRYLFAWYCFFCRCSPCCLVLLLQGSATMKLLSSIEQACDICRLKKLKCSKEKPKCAKCLKNNWECRYSPKTKRSPLTRAHLTEVESRLERLEQLFLLIFPREDLDMILKMDSLQDIKALLTGLFVQDNVNKDAVTDRLASVETDMPLTLRQHRISATSSSEESSNKGQRQLTVSTRMRPECVVPESTCKNKRREKEAQREKDKLPVSTTTVDDHMPAIMQCDPPPPEAARIHEVVPRFLTEKLMEQNRLKNVTPLSANQKSLIARLVWYQEGYEQPSEEDLKRVTQTWQLEEEEEEETDMPFRQITEMTILTVQLIVEFAKGLPGFSKISQSDQITLLKASSSEVMMLRVARRYDAATDSVLFANNQAYTRDNYRKAGMSYVIEDLLHFCRCMYSMSMDNVHYALLTAIVIFSDRPGLEQPLLVEEIQRYYLKTLRVYILNQHSASPRCAVLFGKILGVLTELRTLGTQNSNMCISLKLKNRKLPPFLEEIWDVAEVSTTKLPKAVRCTGGLFFFHRDTTPAHAGETATPMAGGGGGGGGEAGSSDDCSSAASVSLRVGSHDEPCFSGDGDGDWMDDVRALASFLESDEDWLRCQTAGQLA

Tested on: pCGS206 (luciferase reporter with response elements for the GAL4 DNA binding domain)
Test: Maize BMS cells bombarded with GAL4 luciferase reporter and receptor vector, GUS-normalized luciferase
Type: cell-based
Details: for Fold Induction with Teb Relative to Receptor with EtOH / Fold Induction with Teb Relative to Reporter with EtOH: 20 μM Teb; for Normalized Average (EtOH): unliganded background
Description: (§1) Maize BMS (Black Mexican Sweet) cultured cells are transfected with pCGS206 and pCGS208 by high velocity microprojectile bombardment. In addition, an expression plasmid containing the maize ubiquitin promoter driving the expression of β-glucuronidase (GUS) is added to the transfection to serve as an internal control to normalize against variations among the samples.
(§2) Transfections are treated and cell lysates are made essentially as described in U.S. Pat. No. 5,880,333. […] Both luciferase and GUS assays are performed with 20 μl of cell lysate for each assay using the Promega Luciferase Kit (Promega cat #E1500) and GUS-Light Kit (Tropix) respectively. Relative light units are determined using a Turner Designs TD 20/20 luminometer.
In addition to tebufenozide, methoxytebufenozide (“MethoxyTeb”) is also capable of inducing gene expression in maize BMS cells. Both pCGS206 and pCGS208 are transfected as described above and methoxytebufenozide is added in place of tebufenozide at 25 μM and 10 μM.
Maize BMS cells are transfected and assayed as in Example 12.
as §1, with “Transformation of maize suspension cells, chemical treatment, and reporter activity assays are performed as described in Example 12. Maize” for “Maize”, “pCGS206 (pBS-bz1TATA/intronLUC), pCGS203 (G(M)MV), pCGS672 (G(M)MC),” for “pCGS206”, “pCGS678 (G(M)MD)” for “pCGS208”
as §2, with “Maize BMS cells are bombarded with reporter vector pCGS206 and chimeric receptors and treated with tebufenozide essentially as described in Example 12. Transfections” for “Transfections”, “units (RLU)” for “units”

[1] = Example 24, Experiment 1, BMS cells
[2] = Example 24, Experiment 2, BMS cells
[3] = Example 26, + 10 μM Teb vs without
[4] = Example 26, BMS cells, reporter pCGS206, no ligand

| Molecule | Fold Induction with Teb Relative to Receptor with EtOH (Example 24, Experiment 1) | Fold Induction with Teb Relative to Reporter with EtOH (Example 24, Experiment 1) | Normalized Average (EtOH) [1] | Fold Induction with Teb Relative to Receptor with EtOH (Example 24, Experiment 2) | Fold Induction with Teb Relative to Reporter with EtOH (Example 24, Experiment 2) | Normalized Average (EtOH) [2] | Experiment #1 Luciferase (Example 26, + 10 μM Teb) | Experiment #2 Luciferase (Example 26, + 10 μM Teb) | Experiment #1 Fold Induction [3] | Experiment #2 Fold Induction [3] | Experiment #1 Luciferase [4] | Experiment #2 Luciferase [4] |
| --- | --- | --- | --- | --- | --- | --- | --- | --- | --- | --- | --- | --- |
| B1 | 34 fold | 81 fold | 8.701 | 26 fold | 95 fold | 1.539 | – | – | – | – | – | – |
| B2 | 34 fold | 135 fold | 14.499 | 16 fold | 95 fold | 2.537 | – | – | – | – | – | – |
| B3 | 57 fold | 119 fold | 7.601 | 17 fold | 99 fold | 2.394 | – | – | – | – | – | – |
| B4 | 51 fold | 52 fold | 3.766 | 24 fold | 57 fold | 0.484 | – | – | – | – | – | – |
| B5 | – | – | – | – | – | – | 53.20 | 28.05 | 26.0 fold | 17.8 fold | 2.05 | 1.58 |
